Measurements from patent publication US20210269492A1.

Target: Piromyces ScaA fragment (Piromyces)
Assay: SPR equilibrium analysis

Substance	Kd
P. finnis single dockerin domain	700 nM
W28F dockerin mutant	2000 nM
